Test results taken from publication doi:10.1101/2023.03.13.532361.

Molecular target: SLA dehydrogenase RlGabD from Rhizobium leguminosarum SRDI565 (Rhizobium leguminosarum SRDI565)
Experiment: SEC-MALS

stoichiometry N: 4
Substance: SLA dehydrogenase RlGabD from Rhizobium leguminosarum SRDI565 (enzyme)
